The record followed here is article PMC3110719.

The subject of the data set is Nc1ncnc2c1ncn2[C@@H]1O[C@H](COP(=O)(O)OP(=O)(O)OP(=O)(O)O)[C@@H](O)[C@H]1O. The experiment in a line: purified protein.

Where two headings read alike, the source gives them in different places.

A word on the Km: it is the substrate concentration at which the rate is half of its maximum. Consider MsbA (Escherichia coli K-12; D512G), for which the Michaelis-Menten constant (Km) (1 µM MsbA, 0-1 mM ATP, 30 min) worked out at 122 ± 29 µM.

Consider MsbA (Escherichia coli K-12; L511P), for which the Michaelis-Menten constant (Km) amounted to 23 ± 12 µM.
